B1: aPSMA:Rev1:Rev2 (aPSMA-AuNPs-Aggregate) (structured_DNA)
DNA 1: CTGTGACTCATCTGTGAAGGGCGGCGTTTTCGCTTTTGCGTTTTGGGTCATCTGCTTACGATAGCAATGCT
DNA 2: CACAGATGAGTCACAG
DNA 3: AAAACGCCGCCCTT
modifications: Rev1 3' C3 thiol; Rev2 5' C6 thiol
B2: Control:Rev1:Rev2 (C-AuNPs-Aggregate) (structured_DNA)
DNA 1: CTGTGACTCATCTGTGAAGGGCGGCGTTTTATATGTTACCGTCTAAGTACTCTGTTCCGCGCCGTGTGTTG
DNA 2: CACAGATGAGTCACAG
DNA 3: AAAACGCCGCCCTT
modifications: Rev1 3' C3 thiol; Rev2 5' C6 thiol

Columns and labels:
[1] = biological target: T1, hrPSMA (human recombinant Prostate Specific Membrane Antigen, Sinobiological) (human, UniProt Q04609 44-750); test: AuNP aggregate disassembly (DLS size and count rate, plasmon shift); size change significant above 50 pM, count rate from 500 fM; detection thresholds, not Kd; 1x PBS pH 7.4; 37 C for 30 min stated for the initial 50 pM hrPSMA screening; conditions: protein: commercial; chain copies: 2; label: 13 nm gold nanoparticles on Rev1 and Rev2; aPSMA 1-16 paired with Rev1, 17-30 with Rev2; 3' aptamer portion single-stranded; many copies per aggregate
T1 sequence (Q04609 44-750): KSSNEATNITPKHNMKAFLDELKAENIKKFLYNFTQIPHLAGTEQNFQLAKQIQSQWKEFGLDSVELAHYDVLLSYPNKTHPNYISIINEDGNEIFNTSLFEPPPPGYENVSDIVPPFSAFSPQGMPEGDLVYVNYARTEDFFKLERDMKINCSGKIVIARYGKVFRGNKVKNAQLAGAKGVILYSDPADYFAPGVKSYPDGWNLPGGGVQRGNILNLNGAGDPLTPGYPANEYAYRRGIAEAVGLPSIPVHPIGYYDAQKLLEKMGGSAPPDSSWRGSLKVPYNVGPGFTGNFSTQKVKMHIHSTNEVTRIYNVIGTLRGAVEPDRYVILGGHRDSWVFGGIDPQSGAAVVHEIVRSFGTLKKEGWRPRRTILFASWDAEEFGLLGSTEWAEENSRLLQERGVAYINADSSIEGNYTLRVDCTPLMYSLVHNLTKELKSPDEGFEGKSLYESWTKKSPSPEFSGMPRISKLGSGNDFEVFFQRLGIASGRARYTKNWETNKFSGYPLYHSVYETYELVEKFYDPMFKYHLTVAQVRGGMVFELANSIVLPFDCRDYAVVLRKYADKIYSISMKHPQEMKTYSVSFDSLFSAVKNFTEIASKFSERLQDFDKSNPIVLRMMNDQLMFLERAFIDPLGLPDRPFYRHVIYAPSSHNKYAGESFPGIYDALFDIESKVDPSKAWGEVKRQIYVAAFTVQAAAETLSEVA

[2] = biological target: PSMA on intact LNCaP SEVs (human? (LNCaP cells), UniProt Q04609 1-750); test: AuNP aggregate disassembly (plasmon peak shift); intact SEVs; 1x PBS pH 7.4; 37 C for 30 min stated for the initial 50 pM hrPSMA screening; conditions: protein: native; chain copies: 2; label: 13 nm gold nanoparticles on Rev1 and Rev2; Control 1-16 paired with Rev1, 17-30 with Rev2; 3' portion single-stranded; many copies per aggregate
Chain of PSMA on intact LNCaP SEVs (Q04609 whole entry): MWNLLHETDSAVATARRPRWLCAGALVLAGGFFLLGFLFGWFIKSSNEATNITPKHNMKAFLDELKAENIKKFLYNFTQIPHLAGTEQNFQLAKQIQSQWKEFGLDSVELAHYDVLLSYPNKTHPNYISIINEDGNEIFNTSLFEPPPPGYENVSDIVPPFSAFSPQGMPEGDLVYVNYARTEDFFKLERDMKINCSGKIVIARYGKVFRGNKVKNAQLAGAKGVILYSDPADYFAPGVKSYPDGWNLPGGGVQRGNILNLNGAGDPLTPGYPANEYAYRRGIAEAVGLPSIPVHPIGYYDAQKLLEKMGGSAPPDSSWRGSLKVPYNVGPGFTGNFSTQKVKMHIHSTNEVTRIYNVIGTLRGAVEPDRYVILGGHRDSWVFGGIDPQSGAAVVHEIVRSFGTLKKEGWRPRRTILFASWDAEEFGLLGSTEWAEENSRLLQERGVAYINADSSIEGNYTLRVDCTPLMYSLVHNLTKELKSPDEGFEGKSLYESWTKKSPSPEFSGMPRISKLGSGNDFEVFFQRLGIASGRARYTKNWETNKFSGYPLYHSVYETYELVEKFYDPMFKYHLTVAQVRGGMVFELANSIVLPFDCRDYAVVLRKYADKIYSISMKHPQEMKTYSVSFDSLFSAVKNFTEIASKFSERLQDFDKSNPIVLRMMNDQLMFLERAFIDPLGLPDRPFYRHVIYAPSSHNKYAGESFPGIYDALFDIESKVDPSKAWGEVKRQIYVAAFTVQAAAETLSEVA

[3] = biological target: T1, hrPSMA (human recombinant Prostate …); test: AuNP aggregate disassembly (DLS); hrPSMA series; no significant trend; 1x PBS pH 7.4; 37 C for 30 min stated for the initial 50 pM hrPSMA screening; conditions: protein: commercial; chain copies: 2; label: 13 nm gold nanoparticles on Rev1 and Rev2; Control 1-16 paired with Rev1, 17-30 with Rev2; 3' portion single-stranded; many copies per aggregate

Binder | binding result [1] | binding result [2] | binding result [3]
B1 | binds |  | 
B2 |  | no binding | no binding

Source: paper PMC10651859, “Aptamer-based gold nanoparticle aggregates for ultrasensitive amplification-free detection of PSMA”
